Source: patent publication US20240425848

Target: histone H3 trimethylated at lysine 9 (H3K9me3) in native chromatin of Caki-1 cells (UniProt P68431)

| Substance | Ec: global enrichment of the ATAC-seq tagmentation signal over H3K9me3-marked regions, log2(ratio) over genomic Input, Caki-1 [Continued) e] | Mc: modal enrichment of the ATAC-seq tagmentation signal over H3K9me3-marked regions, log2(ratio) over genomic Input, Caki-1 [Continued) e] | stated: no tagmentation signal over H3K9me3 ChIP-seq domains (ATAC-seq on permeabilized Caki-1 nuclei) | stated: tagmentation signal over H3K9me3 ChIP-seq domains (ATAC-seq on permeabilized Caki-1 nuclei) | tagmentation of native chromatin on permeabilized nuclei (ATAC-seq) | Ec: global enrichment of the ATAC-seq tagmentation signal over H3K9me3-marked regions, log2(ratio) over genomic Input, Caki-1; subscript printed as 0, first E line of the box | GET-seq, sequential Tn5 then TnH tagmentation, compared with ChIP-seq profiles | Mc: modal enrichment of the ATAC-seq tagmentation signal over H3K9me3-marked regions, log2(ratio) over genomic Input, Caki-1; subscript printed as 0, first M line of the box, agrees with the mode of t | TnH ATAC-seq compared with H3K9me3 and H3K4me3 ChIP-seq | enrichment of tagmentation signal over H3K9me3-marked regions, compared among TnH #1-4 | scGET-seq pseudobulk compared with H3K9me3 and H3K4me3 ChIP-seq | stated: tagmentation profile follows the H3K9me3 ChIP-seq profile (ATAC-seq, Caki-1) | stated: tagmentation profile follows the H3K9me3 ChIP-seq profile (bulk ATAC-seq with TnH alone and scGET-seq pseudo-bulk, Caki-1) [Continued) g] |
| --- | --- | --- | --- | --- | --- | --- | --- | --- | --- | --- | --- | --- | --- |
| Nextera | Ec= -3.16 | Mc= -0.89 | Nextera track (scale 0-9.3): near zero over the H3K9me3 domain at about 42.4-43.4 Mbp and only small spikes at about 43.8-44.6 Mbp of Chr. 19; peaks where the H3K4me3 track has peaks |  |  |  |  |  |  |  |  |  |  |
| TnH #1: 93aaCD (HP1α)-3×(TGS)-Tn5 | Ec= 0.01 | Mc= 0.19 |  | TnH#1 track (scale 0-6.6): continuous raised signal over the H3K9me3 domain at about 42.4-43.4 Mbp of Chr. 19, where the Tn5 and Nextera tracks are near zero, and lower continuous signal at about 43.8-44.6 Mbp; also sharp peaks at H3K4me3 positions | hybrid Tn5 constructs indeed cut and inserted oligos in regions enriched for H3K9me3 |  |  |  |  |  |  |  |  |
| TnH #2: 93aaCD (HP1α)-5×(TGS)-Tn5 | Ec= -0.41 | Mc= 0.07 |  | TnH#2 track (scale 0-7.7): signal above baseline over the H3K9me3 domain at about 42.4-43.4 Mbp of Chr. 19, where the Tn5 and Nextera tracks are near zero; the sharp peaks at H3K4me3 positions stand out more than in TnH#3 and TnH#1 | hybrid Tn5 constructs indeed cut and inserted oligos in regions enriched for H3K9me3 |  |  |  |  |  |  |  |  |
| TnH #3: 112aaCD (HP1α)-3×(TGS)-Tn5 | Ec= 0.25 | Mc= 0.31 |  | TnH#3 track (scale 0-8.0): continuous raised signal over the H3K9me3 domain at about 42.4-43.4 Mbp of Chr. 19, where the Tn5 and Nextera tracks are near zero, and lower continuous signal at about 43.8-44.6 Mbp; also sharp peaks at H3K4me3 positions (e.g. about 45.5 Mbp) | hybrid Tn5 constructs indeed cut and inserted oligos in regions enriched for H3K9me3 | E0= 0.25 | TnH mimicked more closely H3K9me3 data, and to a lesser extent H3K4me3 | M0= 0.31 | TnH captures both H3K4me3- and H3K9me3-enriched regions, unlike Tn5 which closely matches H3K4me3 profiles | We identified the construct TnH #3, from now on TnH, as the most efficient | TnH was able to target regions positive for H3K9me3 as well as H3K4me3 | TnH track (scale 0-15): broad raised signal where the H3K9me3 track has its domains, highest at about 54.5-55.7 Mbp and raised at about 59-62.5 Mbp of Chr.12, where the Tn5 track is near zero; Input (scale 0-10) flat near 0 | tnH track (scale 0-15): broad raised signal of about half the scale or more at about 33-35, 36.3-37.5 and 38.0-38.9 Mbp of chr1, over the H3K9me3 domains; tnH pseudobulk track (scale 0-15): the same three domains raised, somewhat lower; both also show small peaks at H3K4me3 positions; Input (scale 0 |
| TnH #4: 112aaCD (HP1α)-5×(TGS)-Tn5 | Ec= -0.55 | Mc= 0.07 |  | TnH#4 track (scale 0-2.7): signal above baseline over the H3K9me3 domain at about 42.4-43.4 Mbp of Chr. 19, where the Tn5 and Nextera tracks are near zero; the sharp peaks at H3K4me3 positions stand out more than in TnH#3 and TnH#1 | hybrid Tn5 constructs indeed cut and inserted oligos in regions enriched for H3K9me3 |  |  |  |  |  |  |  |  |
